To fix the notation:
B1: Myb32 wild type (residues 284-315 of mouse c-Myb, transactivation domain fragment) (peptide)
chain: GYNDEDPEKEKRIKELELLLMSTENELKGQQAL
notes: additional Gly residue left at the N-terminus after thrombin cleavage; Myb32, residues 284-315 of mouse c-Myb; 33-residue peptide (Gly + 32 residues); also called WT; wild-type Myb32; source: E. coli BL21(DE3), purified (Ni-NTA, thrombin cleavage on the column, DEAE anion exchange); not shown: His6, N-terminal, cleaved; GB1, N-terminal, cleaved
B2: Myb32 K291R/K293R/K296R triple mutant (RRR) (peptide)
chain: B1 chain with K9R, K11R, K14R
notes: additional Gly residue left at the N-terminus after thrombin cleavage; Myb32, residues 284-315 of mouse c-Myb; also called RRR Myb32 mutant; source: E. coli BL21(DE3), purified (Ni-NTA, thrombin cleavage on the column, DEAE anion exchange); not shown: His6, N-terminal, cleaved; GB1, N-terminal, cleaved
B3: His-tag-GB1-Myb32 (wild-type Myb32 with a His-tag and GB1) (peptide)
chain: YNDEDPEKEKRIKELELLLMSTENELKGQQAL
notes: Myb32, residues 284-315 of mouse c-Myb; 6xHis-tag, B1 domain of protein G and the thrombin cleavage site stand before Myb32; coupled to the chip by amine coupling; also called immobilized wild-type Myb32; His-tagged Myb32 protein; source: E. coli BL21(DE3), purified (Ni-NTA, eluted with imidazole); not shown: His6, N-terminal, kept; GB1, N-terminal, kept
B4: Myb32 K291R (peptide)
chain: B1 chain with K9R
notes: additional Gly residue left at the N-terminus after thrombin cleavage; Myb32, residues 284-315 of mouse c-Myb; source: E. coli BL21(DE3), purified (Ni-NTA, thrombin cleavage on the column, DEAE anion exchange); not shown: His6, N-terminal, cleaved; GB1, N-terminal, cleaved
B5: Myb32 K291R/K293R (peptide)
chain: B1 chain with K9R, K11R
notes: as for B4
B6: Myb32 K291R/K296R (peptide)
chain: B1 chain with K9R, K14R
notes: as for B4
B7: Myb32 K293R (peptide)
chain: B1 chain with K11R
notes: as for B4
B8: Myb32 E292L (peptide)
chain: B1 chain with E10L
notes: as for B4
B9: Myb32 K296R (peptide)
chain: B1 chain with K14R
notes: as for B4
B10: Myb32 K293R/K296R (peptide)
chain: B1 chain with K11R, K14R
notes: as for B4

The values below come from paper PMC8776815, “Rational design of a helical peptide inhibitor targeting c-Myb–KIX interaction” (Scientific Reports, 2022).

Numbering of substitutions follows the chain as printed. Names may count otherwise. No end group written: not given here.

T2 sequence (P45481 586-672): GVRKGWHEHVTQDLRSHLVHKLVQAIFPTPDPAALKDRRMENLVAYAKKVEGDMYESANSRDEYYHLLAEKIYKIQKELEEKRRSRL

In the first test the target is T1, KIX domain of CBP in the presence of the MLL TAD peptide MLL28 (two-fold excess of MLL28 over KIX) (mouse | human, UniProt P45481 586-672; Q03164 2842-2869).
T1 construct: KIX domain, residues 586-672 of mouse CBP; single Tyr residue attached at the C-terminus of MLL28 for concentration determination; A Gly left at the N-terminus after thrombin cleavage is stated only for Myb32, it is likely on MLL28 too; also called KIX and MLL28; source: E. coli BL21(DE3)pLysS (KIX) and BL21(DE3) (MLL28), each purified; 45 uM KIX and 90 uM MLL28 together in the ITC cell; not …
T1 sequence (P45481 586-672, chain 1 of 2): as the sequence (P45481 586-672) above
T1 sequence (Q03164 other isoform, or with tags, fused parts or gaps, chain 2 of 2): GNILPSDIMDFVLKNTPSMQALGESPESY
Put plainly: ITC; under the conditions of the SPR measurement: 20 mM sodium phosphate pH 7.0, 300 mM NaCl; in the presence of MLL28 (all ITC experiments). The settings on record: both partners purified.
On to B1, for which the Kd (in general, the equilibrium constant for the complex coming apart) amounted to 510 nM; the dH is -13.8 kcal mol^–1; the stoichiometry N (commonly a count of units in the complex or per binding partner) was determined as 0.99.

On to B2, for which the Kd was 260 nM, the dH is -14.8 kcal mol^–1 and the “stoichiometry N” value was determined as 0.99.

For another test, the target named is KIX.
Experiment: not given
The settings on record: previous studies; read-out: Kd (dissociation constant for KIX binding); cited from earlier work. An excerpt: Although the c-Myb TAD is intrinsically disordered, the region of residues 284–315, called Myb32, has a high helical propensity. […] Moreover, Myb32 is known to bind KIX by a conformational selection mechanism. This information may provide a clue to improve the binding affinity to KIX[38],[40]. Therefore, Myb32 is a suitable template for designing peptide inhibitors.
With “c-Myb TAD full length: full-length transactivation domain of c-Myb (residues 275–327), intrinsically disordered (PAAAAIQRHYNDEDPEKEKRIKELELLLMSTENELKGQQVLPTQNHTCSYPGW; transactivation domain; UniProt P10242 275-327, looked up, fragment)”, the Kd is 500 nM.

The next test addresses T2, KIX domain of CREB-binding protein (residues 586-672 of mouse CBP) without a His-tag (mouse, UniProt P45481 586-672).
T2 construct: KIX domain, residues 586-672 of mouse CBP; the thrombin site ends in LVPR followed by G586 of KIX; also called KIX without a His-tag; source: E. coli BL21(DE3)pLysS, purified (Ni-NTA, thrombin cleavage, size exclusion chromatography); not shown: His6, N-terminal, cleaved
Nature of the test: SPR; competitive binding assay (OpenSPR, localized SPR); His-tag-GB1-Myb32 wild type immobilised by amine coupling; 1 uM KIX without His-tag injected alone or mixed with inhibitor (1 nM to 300 uM); 20 mM sodium phosphate pH 7.0, 300 mM NaCl; 30 °C. The settings on record: both partners purified. Background: Surface plasmon resonance follows binding to a sensor surface in real time, without labels.
On to B1, for which the IC50 (in general, the concentration that gives 50% inhibition) was determined as 10900 nM.

As to B2, the IC50 turned out to be 5600 nM.

For B3, the binding result is given as “binds”.

In another test the target is T1, KIX domain of CBP in the presence of …. Put plainly: ITC; 600 uM Myb32 peptide titrated into the cell with 45 uM KIX and 90 uM MLL28; 20 mM Tris-acetate pH 7.0, 50 mM NaCl; 30 °C. To be noted: both partners purified. (ITC needs no label: the signal is the heat of the interaction.)
Regarding B1, the Kd was determined as 220 nM, the dH is -6.49 kcal mol^–1 and the “stoichiometry N” value stood at 0.97.

As to B4, the Kd worked out at 210 nM, the dH is -6.46 kcal mol^–1 and the “stoichiometry N” value was determined as 0.97.

On to B5, for which the Kd turned out to be 140 nM, the dH is -7.31 kcal mol^–1 and the “stoichiometry N” value came to 0.84.

As for B2, the Kd was determined as 80 nM, the dH is -7.57 kcal mol^–1 and the “stoichiometry N” value turned out to be 0.99.

As to B6, the Kd amounted to 120 nM, the dH is -7.56 kcal mol^–1 and the “stoichiometry N” value amounted to 0.9.

On to B7, for which the dH was -7.03 kcal mol^–1 and the “stoichiometry N” value came to 0.94.

Turning to B8, the Kd was 480 nM, the dH is -5.45 kcal mol^–1 and the “stoichiometry N” value is 0.92.

On to B9, for which the Kd was found to be 160 nM, the dH was -6.3 kcal mol^–1 and the “stoichiometry N” value amounted to 0.96.

On to B10, for which the Kd worked out at 130 nM, the dH is -7.31 kcal mol^–1 and the “stoichiometry N” value was 0.96.

The target of the next test is CBP KIX (Mus musculus) (UniProt P45481).
Chain of CBP KIX (Mus musculus) (P45481 583-668): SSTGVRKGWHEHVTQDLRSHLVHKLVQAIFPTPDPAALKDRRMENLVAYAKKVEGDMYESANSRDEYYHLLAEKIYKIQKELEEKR
Experiment: not given
To be noted: cited from earlier work.
As for c-Myb TAD TAD (from UniProt P06876), the Kd is 500 nM.

Another test has as its target T3, KIX domain of CBP (c-Myb/pKID site) (Mus musculus, UniProt P45481).
T3 construct: KIX (residues 586–672 of mouse CBP); 6xHis-tag with thrombin cleavage site (MGHHHHHHSSGLVPR) (N); made in house; host or cells: E. coli BL21(DE3)pLysS for KIX; E. coli BL21(DE3) for MLL28
Nature of the test: Isothermal titration calorimetry (ITC) of KIX binding of Myb32 peptides. The settings on record: 20 mM Tris-acetate pH 7.0, 50 mM NaCl, 30 °C, 600 μM Myb32 into 45 µM KIX + 90 µM MLL28, mean ± standard error, more than two measurements, read-out: Kd (dissociation constant for KIX binding). An excerpt:
Next, we performed isothermal titration calorimetry (ITC) measurements to investigate the KIX-binding affinity of the peptides. Although Myb32 primarily binds the c-Myb/pKID site on KIX, previous studies have shown that it also binds the MLL site, located opposite the c-Myb/pKID site[38]. Therefore, to prevent the secondary binding of Myb32, we conducted all ITC experiments in the presence of the MLL TAD peptide (residues 2842–2869, called MLL28) with a two-fold excess of MLL over KIX[38].
ITC measurements were conducted using a MicroCal iTC200 (Malvern Panalytical Ltd., Malvern, United Kingdom) in ITC buffer at 30 °C. All samples were dialyzed sufficiently before the experiments. 600 μM Myb32 was titrated into the cell containing 45 µM KIX and 90 µM MLL28. The data were analyzed using Origin software (OriginLab Co., Northampton, MA, USA) to obtain the Kd, stoichiometry of binding (N), and enthalpy change upon binding (ΔH). The Gibbs free energy change (ΔG) and entropy change (ΔS) upon binding were obtained as follows:3 ΔG=-RTln1/Kd 4 ΔS=ΔH-ΔG/T where R is the gas constant, and T is the temperature.
As to GYNDEDPEKEKRIKELELLLMSTENELKGQQAL [WT], the Kd is 220 ± 10 nM.

Take “GYNDEDPEKERRIKELELLLMSTENELKGQQAL [K293R]”: the Kd came out at 220 ± 10 nM.
